Experimental data from paper PMC5766609 (Scientific Reports, 2018).
Starred links: 1 amine or outer side, 2 acyl side, 3 side chain; linkers in the order of their positions; H or OH if unused. Non-standard residues stand in square brackets, D forms with d. Groups on a side chain read outwards from the residue. No end group written: not given here. *: point of attachment. γGlu = O=C(O)[C@H](CCC(=O)[*:2])N[*:1]; Palmitoyl = CCCCCCCCCCCCCCCC(=O)*

B1: Peptide 5 (peptide)
peptide: HSQGTFTSDYSKYLDSLMAQDFVQWLMST-NH2
B2: Peptide 24 (peptide)
peptide: HSQGTFTSDYSKYLDSKRAHDFVQWLLNT-NH2
B3: Peptide 21 (peptide)
peptide: KALGQFTFTSDYSKYLDSRRAQDFVQWLMNT-NH2
B4: Peptide 1 (peptide)
peptide: HSVGNFWSDYSKYLDSRRAQDFVQWLMLT-NH2
B5: Peptide 33 (peptide)
peptide: HSQGTFTSDYSKYLDSRMAYDFVQWLMNT-NH2
B6: Peptide 13 (peptide)
peptide: HSQGTFTSDYSKYLDSRRAQDFVQWLINY-NH2
B7: Peptide 18 (peptide)
peptide: HSQGTFTSDYSKYLDSIRAQDFVQWLMDT-NH2
B8: Peptide 14 (peptide)
peptide: INHEQWAFTSDYSKYLDSRRAQDFVQWLMNT-NH2
B9: Peptide 35 (peptide)
peptide: HSQGTFTSDYSKYLDSRRAQDFVQWLLDS-NH2
B10: Peptide 17 (peptide)
peptide: HSQGTFLHDYYYYLDSRRAQDFVQWLMDT-NH2
B11: Peptide 10 (peptide)
peptide: HSQGTFTSDYSKYLDELRAYDFVQWLMNT-NH2
B12: Peptide 2 (peptide)
peptide: HSQGTFTSDYSKYVEDRRAHDFVQWLMNT-NH2
B13: Peptide 3 (peptide)
peptide: HSQGTFTSDYRKYLDERAAWDFVQWLMNT-NH2
B14: Peptide 11 (peptide)
peptide: HSQGTFTSDYSKYLDSRRAHDFVQWLLNT-NH2
B15: Peptide 30 (peptide)
peptide: HSQGIFFSDYSKYLDSRRAQDFVQWLMNT-NH2
B16: Peptide 34 (peptide)
peptide: HSQGTFFSDYSKYLDSRRAQDFVQWLLET-NH2
B17: Peptide 26 (peptide)
peptide: HSQGTFTSDYSKYLDSRRAQDFVMTSMNT-NH2
B18: Peptide 7 (peptide)
peptide: HSQGTFTSDYIKLLDSRRAQDFVQWLMNT-NH2
B19: Peptide 4 (peptide)
peptide: HSQGTFTSDYSKYLDIGRAQDFVQWLLNT-NH2
B20: Peptide 28 (peptide)
peptide: HSQGTFTSDYSKYLDSRRAQDFVDWLINS-NH2
B21: Peptide 36 (peptide)
peptide: H[dS]QGTFTSDK([γGlu-γGlu-Palmitoyl])SKYLDSRRAHDFVQWLLNT-NH2
modifications: N-terminus assumed
SMILES: CCCCCCCCCCCCCCCC(=O)N[C@@H](CCC(=O)N[C@@H](CCC(=O)NCCCC[C@H](NC(=O)[C@H](CC(=O)O)NC(=O)[C@H](CO)NC(=O)[C@@H](NC(=O)[C@H](Cc1ccccc1)NC(=O)[C@@H](NC(=O)CNC(=O)[C@H](CCC(N)=O)NC(=O)[C@@H](CO)NC(=O)[C@@H](N)Cc1c[nH]cn1)[C@@H](C)O)[C@@H](C)O)C(=O)N[C@@H](CO)C(=O)N[C@@H](CCCCN)C(=O)N[C@@H](Cc1ccc(O)cc1)C(=O)N[C@@H](CC(C)C)C(=O)N[C@@H](CC(=O)O)C(=O)N[C@@H](CO)C(=O)N[C@@H](CCCNC(=N)N)C(=O)N[C@@H](CCCNC(=N)N)C(=O)N[C@@H](C)C(=O)N[C@@H](Cc1c[nH]cn1)C(=O)N[C@@H](CC(=O)O)C(=O)N[C@@H](Cc1ccccc1)C(=O)N[C@H](C(=O)N[C@@H](CCC(N)=O)C(=O)N[C@@H](Cc1c[nH]c2ccccc12)C(=O)N[C@@H](CC(C)C)C(=O)N[C@@H](CC(C)C)C(=O)N[C@@H](CC(N)=O)C(=O)N[C@H](C(N)=O)[C@@H](C)O)C(C)C)C(=O)O)C(=O)O

target: human GLP-1 receptor (human) (UniProt P43220)
Sequence (P43220 24-463): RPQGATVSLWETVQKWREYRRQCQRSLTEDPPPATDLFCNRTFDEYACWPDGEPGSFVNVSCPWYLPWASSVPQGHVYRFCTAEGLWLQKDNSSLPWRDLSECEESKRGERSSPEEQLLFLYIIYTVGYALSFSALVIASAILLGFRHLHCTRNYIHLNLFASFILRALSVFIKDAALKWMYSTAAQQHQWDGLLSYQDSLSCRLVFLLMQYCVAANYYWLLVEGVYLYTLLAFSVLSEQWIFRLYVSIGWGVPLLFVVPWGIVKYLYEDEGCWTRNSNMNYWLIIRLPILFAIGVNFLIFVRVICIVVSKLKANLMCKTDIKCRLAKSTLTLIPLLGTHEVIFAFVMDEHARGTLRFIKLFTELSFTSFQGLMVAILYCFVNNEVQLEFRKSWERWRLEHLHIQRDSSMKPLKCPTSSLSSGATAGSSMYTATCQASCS

| EC50 GLP1R (nM); cAMP assay on CHO-JumpIn cells with human GLP1R [nM] | Binder |
| --- | --- |
| 0.133 | B1 |
| 0.018 | B2 |
| 14.8 | B3 |
| 16.7 | B4 |
| 0.059 | B5 |
| 0.039 | B6 |
| 0.056 | B7 |
| 16.7 | B8 |
| 0.018 | B9 |
| > 200 | B10 |
| 0.038 | B11 |
| 0.184 | B12 |
| 0.427 | B13 |
| 0.018 | B14 |
| > 200 | B15 |
| 51.9 | B16 |
| 8.96 | B17 |
| 78.3 | B18 |
| 1.33 | B19 |
| 0.007 | B20 |

target: glucagon receptor (human) (UniProt P47871)
Sequence (P47871 26-477): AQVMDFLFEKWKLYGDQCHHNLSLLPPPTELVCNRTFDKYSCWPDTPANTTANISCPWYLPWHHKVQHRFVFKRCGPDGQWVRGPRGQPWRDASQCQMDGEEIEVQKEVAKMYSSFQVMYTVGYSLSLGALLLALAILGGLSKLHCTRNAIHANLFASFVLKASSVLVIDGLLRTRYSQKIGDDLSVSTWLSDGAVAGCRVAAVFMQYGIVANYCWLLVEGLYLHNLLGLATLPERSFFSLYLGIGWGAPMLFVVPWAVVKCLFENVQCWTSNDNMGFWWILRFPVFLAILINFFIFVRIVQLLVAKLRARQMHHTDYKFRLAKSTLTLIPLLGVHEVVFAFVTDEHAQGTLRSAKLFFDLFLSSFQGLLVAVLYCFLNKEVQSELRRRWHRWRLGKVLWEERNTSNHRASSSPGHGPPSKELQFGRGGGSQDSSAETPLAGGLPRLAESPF

| EC50 GCGR (nM); cAMP assay on CHO-JumpIn cells with human GCGR [nM] | Binder |
| --- | --- |
| 0.025 | B1 |
| 0.026 | B2 |
| 4.18 | B3 |
| 8.45 | B4 |
| 0.079 | B5 |
| 0.078 | B6 |
| 0.037 | B7 |
| 2.6 | B8 |
| 0.0019 | B9 |
| 0.527 | B10 |
| 0.057 | B11 |
| 2.24 | B12 |
| 1.35 | B13 |
| 0.018 | B14 |
| 0.026 | B15 |
| 0.027 | B16 |
| > 200 | B17 |
| 0.301 | B18 |
| 0.026 | B19 |
| 0.016 | B20 |

target: human GLP-1 receptor (human) (UniProt P43220); remark: another data set of the same source

| EC50 hGLP1 (nM); cAMP assay on CHO-JumpIn cells with human GLP1R [nM] | Binder |
| --- | --- |
| 0.05 | B21 |

target: glucagon receptor (human) (UniProt P47871); remark: another data set of the same source

| EC50 hGCGR (nM); cAMP assay on CHO-JumpIn cells with human GCGR [nM] | Binder |
| --- | --- |
| 0.023 | B21 |
